In experiment [1] the target is 重组人THSD7A蛋白 (recombinant human THSD7A protein) (human) (UniProt Q9UPZ6). The experiment is described as follows: indirect ELISA on coated THSD7A, serum standard read on the rhA3 standard curve. Background: An ELISA detects its analyte on a solid surface through an enzyme-linked reagent.
The target is the same in experiment [2]. The experiment is described as follows: indirect ELISA on coated THSD7A, against the anti-THSD7A human serum standard.
For experiment [3] the target is unchanged. The experiment is described as follows: indirect ELISA on coated THSD7A, value read from the curve of the anti-THSD7A human serum standard.
Experiment [4] addresses T1, 重组人THSD7A蛋白 (recombinant human THSD7A protein) (human, UniProt Q9UPZ6 48-1606).
T1 construct: Expressed by transient transfection of 293T cells; no tag is mentioned; also called hTHSD7A; 人源THSD7A
The experiment is described as follows: phage ELISA / ELISA of supernatants on the antigen, then chemiluminescence immunoassay of purified antibody.

T1 sequence (Q9UPZ6 48-1606 limits assumed): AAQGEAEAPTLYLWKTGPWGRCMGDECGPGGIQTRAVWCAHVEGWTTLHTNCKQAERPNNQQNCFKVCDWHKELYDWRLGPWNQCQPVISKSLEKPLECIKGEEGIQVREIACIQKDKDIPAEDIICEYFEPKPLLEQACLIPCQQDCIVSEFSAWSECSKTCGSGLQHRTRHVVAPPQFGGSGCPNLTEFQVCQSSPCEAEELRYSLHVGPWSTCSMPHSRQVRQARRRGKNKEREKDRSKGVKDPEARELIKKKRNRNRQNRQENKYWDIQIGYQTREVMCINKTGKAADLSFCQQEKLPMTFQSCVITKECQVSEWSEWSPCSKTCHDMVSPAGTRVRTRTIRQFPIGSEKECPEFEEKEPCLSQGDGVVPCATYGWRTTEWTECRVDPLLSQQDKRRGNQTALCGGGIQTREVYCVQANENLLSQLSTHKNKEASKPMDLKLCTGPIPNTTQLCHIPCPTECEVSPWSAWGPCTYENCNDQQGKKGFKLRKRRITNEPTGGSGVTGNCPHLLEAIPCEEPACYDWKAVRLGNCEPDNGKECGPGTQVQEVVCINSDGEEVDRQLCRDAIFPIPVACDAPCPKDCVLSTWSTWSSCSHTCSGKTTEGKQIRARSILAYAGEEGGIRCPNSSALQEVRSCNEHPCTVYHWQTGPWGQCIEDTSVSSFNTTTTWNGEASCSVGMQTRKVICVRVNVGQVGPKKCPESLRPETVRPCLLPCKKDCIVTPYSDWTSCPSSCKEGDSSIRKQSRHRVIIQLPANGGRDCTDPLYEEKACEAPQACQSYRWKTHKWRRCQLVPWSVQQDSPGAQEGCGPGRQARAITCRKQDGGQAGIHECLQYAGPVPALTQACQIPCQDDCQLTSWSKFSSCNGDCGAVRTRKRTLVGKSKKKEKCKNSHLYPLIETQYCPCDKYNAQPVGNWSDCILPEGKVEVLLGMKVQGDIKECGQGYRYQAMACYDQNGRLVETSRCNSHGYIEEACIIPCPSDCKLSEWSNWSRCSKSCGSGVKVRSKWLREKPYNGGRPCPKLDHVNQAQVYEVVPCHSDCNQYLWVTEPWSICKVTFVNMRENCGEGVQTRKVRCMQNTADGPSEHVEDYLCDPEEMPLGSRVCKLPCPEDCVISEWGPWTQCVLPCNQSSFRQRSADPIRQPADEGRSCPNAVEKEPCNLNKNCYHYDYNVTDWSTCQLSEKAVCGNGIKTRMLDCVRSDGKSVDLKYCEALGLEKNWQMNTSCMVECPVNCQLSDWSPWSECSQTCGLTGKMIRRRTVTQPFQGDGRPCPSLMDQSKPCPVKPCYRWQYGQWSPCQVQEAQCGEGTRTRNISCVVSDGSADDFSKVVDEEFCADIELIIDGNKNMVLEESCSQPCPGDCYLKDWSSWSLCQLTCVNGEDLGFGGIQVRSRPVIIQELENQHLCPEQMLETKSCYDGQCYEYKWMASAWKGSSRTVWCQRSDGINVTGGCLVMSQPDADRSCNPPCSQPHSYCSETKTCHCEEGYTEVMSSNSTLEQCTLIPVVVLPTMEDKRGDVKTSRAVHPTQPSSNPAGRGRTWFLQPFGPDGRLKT

B1: 嵌合单抗rhA3 (重组嵌合抗体A3单抗) (antibody, human IgG4 S228P, kappa, V domains shown)
VH: QSVKESGGRLVTPGGTLTLTCTVSGFSLSTYYMSWVRQAPGKGLEWIGSIESYGDRYYATWAKGRFTISKTSSTTVDLKMTSLTASDTATYFCTRNDLSWDNDNIWGPGTLVTVSS
VL: DVQMTQTPSSVSVSVGGTVTINCQASQSVYGNNELNWYQQKSGQPPKLLIYKAGTLASGVPSRFSGSGSGTQFTLTISDLECDDAAIYYCQGGYWGQRAFGGGTKLEIKR
Regarding B1, in experiment [1], the 比活 (serum standard 12U/mL on rhA3 curve) stood at 3.01 U/ng, the 比活 (serum standard 60U/mL on rhA3 curve) came to 2.97 U/ng and the 比活 (serum standard 300U/mL on rhA3 curve) stood at 2.97 U/ng. Moreover, in experiment [2], the THSD7A抗体活性 per ng came out at 3 U/ng, the 比活 at 4ng/mL rhA3 was found to be 3.01 U/ng, the 比活 at 20ng/mL rhA3 amounted to 2.99 U/ng and the 比活 at 100ng/mL rhA3 is 3.05 U/ng. In experiment [3], the THSD7A抗体浓度 (read from serum standard curve) at 4ng/mL rhA3 was 12 U/mL, the THSD7A抗体浓度 (read from serum standard curve) at 20ng/mL rhA3 was 60.5 U/mL and the THSD7A抗体浓度 (read from serum standard curve) at 100ng/mL rhA3 was found to be 305 U/mL.

B2: 小鼠抗THSD7A单抗A3 (antibody, V domains shown)
VH: QSVKESGGRLVTPGGTLTLTCTVSGFSLSTYYMSWVRQAPGKGLEWIGSIESYGDRYYATWAKGRFTISKTSSTTVDLKMTSLTASDTATYFCTRNDLSWDNDNIWGPGTLVTVSS
VL: DVQMTQTPSSVSVSVGGTVTINCQASQSVYGNNELNWYQQKSGQPPKLLIYKAGTLASGVPSRFSGSGSGTQFTLTISDLECDDAAIYYCQGGYWGQRAFGGGTKLEIK
notes: Selected from a phage scFv library of immunised mice; variable regions cloned into a eukaryotic expression vector and expressed in 293T cells
In the case of B2, the binding result in experiment [4] is reported as “binds”.

These data come from patent CN118063606A (JIANGXI SAIJI BIOTECHNOLOGY CO LTD; HANGZHOU SAIJI …, dated 2024).
